Assay [1] deals with human μ-opioid receptor (AtT20FlpInMOR cells) (human) (UniProt P35372).
For assay [2], the target named is rat HA-μ-opioid receptor (rat) (UniProt P33535).
The target of assay [3] is human μ-opioid receptor-RlucII (human) (UniProt P35372).

Chain of UniProt P33535 (P33535 whole entry): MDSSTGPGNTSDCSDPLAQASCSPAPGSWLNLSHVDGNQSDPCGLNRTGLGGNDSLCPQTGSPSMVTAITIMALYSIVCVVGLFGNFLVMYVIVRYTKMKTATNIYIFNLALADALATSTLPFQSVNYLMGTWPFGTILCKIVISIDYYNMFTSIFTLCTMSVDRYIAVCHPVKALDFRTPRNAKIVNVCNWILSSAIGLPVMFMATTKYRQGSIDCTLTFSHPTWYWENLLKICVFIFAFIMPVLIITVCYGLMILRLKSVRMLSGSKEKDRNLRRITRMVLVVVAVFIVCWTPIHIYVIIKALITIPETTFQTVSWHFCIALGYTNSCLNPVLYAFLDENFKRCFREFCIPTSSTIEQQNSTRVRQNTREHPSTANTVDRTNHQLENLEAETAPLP

For the substance “[D-Ala^2, N-MePhe^4, Gly-ol]-enkephalin (peptide)”, in assay [1], the apparent rate constant of dissociation (koff): decay of the membrane potential response to the EC75 concentration after naloxone 10 μM, AtT20 cells was over 0.126 s⁻¹; the apparent rate of dissociation (t1/2): decay of the membrane potential response to the EC75 concentration after naloxone 10 μM, AtT20 cells was under 5.5 s; the membrane potential dye fluorescence (hyperpolarisation) in μ-opioid receptor-expressing AtT20 cells, agonist pEC50, first set of experiments (log M (printed under pEC50)) is -7.98; the membrane potential dye fluorescence (hyperpolarisation) in μ-opioid receptor-expressing AtT20 cells, agonist pEC50, second set of experiments (log M (printed under pEC50)) is -8.12. In assay [2], this substance displayed a Gi protein activation BRET (decrease of BRET between Gαi1-RlucII and GFP10-Gγ2) in HEK293T cells, agonist pEC50, first set (log M (printed under pEC50)) of -6.82; a Gi protein activation BRET (decrease of BRET between Gαi1-RlucII and GFP10-Gγ2) in HEK293T cells, agonist pEC50, second set (log M (printed under pEC50)) of -6.99. In assay [3], this substance displayed a β-arrestin 2 translocation BRET (μ-opioid receptor-RlucII with β-arrestin-2-GFP) in HEK293T cells, agonist pEC50, first set (log M (printed under pEC50)) of -6.12 and a β-arrestin 2 translocation BRET (μ-opioid receptor-RlucII with β-arrestin-2-GFP) in HEK293T cells, agonist pEC50, second set (log M (printed under pEC50)) of -6.33.

The record behind these values is PMC7618119.
